In series [1] the target is T1, HIV-1 reverse transcriptase (Human immunodeficiency virus 1) (UniProt P03366+P03366). Kind of series: inhibition. The note with it: Ki' printed as ≤ 3 uM; almost no inhibition at 81 nM.
For series [2], the target named is T1, HIV-1 reverse transcriptase (Human immunodeficiency virus 1). As to the kind of experiment: filter. The note with it: apparent Kd, HRT buffer 37 C.
For series [3], the system named is AMV reverse transcriptase (Avian myeloblastosis virus). Particulars: intramolecular 3' extension to end of template.

Some results are limits rather than exact numbers.

We go through two sequences from patent US5786462.

In series [1], “ATCCGCCTGATTAGCGATACTNNNNNNNNNNNNNNNNNNNNNNNNNNNNNNNNNNNACTTGAGCAAAATCACCTGCAGGGG [RO degenerate ssDNA library]” came in with a Ki above 3000 nM. In series [2], the Kd is 1400 nM.
“ATCCGCCTGATTAGCGATACTTACGTGAGCGTGCTGTCCCCTAAAGGTGATACGTCACTTGAGCAAAATCACCTGCAGGGG [RT26]” yielded an activity in series [3] of 50 % initiation.

Broadly, the Ki is a measure of affinity in units of concentration, obtained from inhibition or displacement. A lower Ki goes with higher affinity.
